Source: publication PMC12846656

Columns and labels:
[1] = tested on: WT Np (SARS-CoV-2 (ancestral, WA-1/2020 isolate)); test: fluorescence anisotropy salt titration
HIV-1 Gag WT (HIV-1) = test: fluorescence anisotropy salt titration

Substance | Kd [1] | Kd (HIV-1 Gag WT (HIV-1))
HIV-1 TARpolyA | 260 µM | 
HIV-1 WT Psi | 38 µM | 
SL1-4 | 260 µM | 120000 µM
SL1-5 | 36 µM | 21000 µM
SL5 | 500 µM | 140 µM
